According to paper PMC6009700:
Read-outs that look alike come from different tables or passages of the source.

T1: TubR (Clostridium botulinum prophage c-st, UniProt Q331T6 1-81)
T1 sequence: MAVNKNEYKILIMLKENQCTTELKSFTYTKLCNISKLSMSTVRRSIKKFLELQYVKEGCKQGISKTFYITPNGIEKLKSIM

B1: Shuffle DNA (dsDNA)
DNA 1: AATCGTAAAATATTACAATATAAGGTAACAAGATATTCCTTTTTGGAGCAT
DNA 2: ATGCTCCAAAAAGGAATATCTTGTTACCTTATATTGTAATATTTTACGATT
B2: SF1b (dsDNA)
DNA 1: AAATAAACATGATATGAACATATATTGACTACAGTTTGACATAGTTTTGAC
DNA 2: GTCAAAACTATGTCAAACTGTAGTCAATATATGTTCATATCATGTTTATTT
B3: SF2 (dsDNA)
DNA 1: AGAATATACTTTGAATATAATTAGACTTAAACAAGATTACTTTTAGACTATAGTATAAATATAATTAGAAAATAATTTGAATAATTTATGAAAATAAGTACACATTTTCTAAGGAATATAGTATAATATAGTAAAGAAAGA
DNA 2: TCTTTCTTTACTATATTATACTATATTCCTTAGAAAATGTGTACTTATTTTCATAAATTATTCAAATTATTTTCTAATTATATTTATACTATAGTCTAAAAGTAATCTTGTTTAAGTCTAATTATATTCAAAGTATATTCT
B4: SF1 (dsDNA)
DNA 1: TAAGGAATATAGTATAATATAGTAAAGAAAGAAATAAACATGATATGAACATATATTGACTACAGTTTGACATAGTTTTGACTATGATATGAACAAAATAAGAATGTATTATGAATATTTTCTTACATTACTGCGACTACTATCAG
DNA 2: CTGATAGTAGTCGCAGTAATGTAAGAAAATATTCATAATACATTCTTATTTTGTTCATATCATAGTCAAAACTATGTCAAACTGTAGTCAATATATGTTCATATCATGTTTATTTCTTTCTTTACTATATTATACTATATTCCTTA
B5: CP1 (dsDNA)
DNA 1: TATAGTAAAGAAAGAAATAAACATGATATGAACATATATTGACTACAGTTTGACATAGTTTTGACTATGATATGAACAAAATAAGAATGTATTA
DNA 2: TAATACATTCTTATTTTGTTCATATCATAGTCAAAACTATGTCAAACTGTAGTCAATATATGTTCATATCATGTTTATTTCTTTCTTTACTATA
B6: SF3b (dsDNA)
DNA 1: TGAACATATAGTGAACATAATACAACTAGTACAAGAATGTAGTTTGACTAT
DNA 2: ATAGTCAAACTACATTCTTGTACTAGTTGTATTATGTTCACTATATGTTCA
B7: SF3 (dsDNA)
DNA 1: GTTAATTGTAGCGTTAAGTGAGACATAGAATTGAACATATAGTGAACATAATACAACTAGTACAAGAATGTAGTTTGACTATAATTTGAACATATTTAGAATATACTTTGAATATAATTAGACTTAAACAAG
DNA 2: CTTGTTTAAGTCTAATTATATTCAAAGTATATTCTAAATATGTTCAAATTATAGTCAAACTACATTCTTGTACTAGTTGTATTATGTTCACTATATGTTCAATTCTATGTCTCACTTAACGCTACAATTAAC

Legend:
[1] = target: T1, TubR; assay: EMSA
[2] = target: T1, TubR; assay: fluorescence anisotropy
[3] = target: T1, TubR; assay: EMSA; remark: listed apart in the source
[4] = target: T1, TubR; assay: fluorescence anisotropy; remark: listed apart in the source

| Binder | binding result [1] | also measured |
| --- | --- | --- |
| B1 | no binding |  |
| B2 |  | apparent K (half saturation) [2]: 184 ± 4.04 nM |
| B3 | binds |  |
| B4 | binds |  |
| B5 |  | binding result [3]: binds |
| B6 |  | apparent K (half saturation) [4]: 138 ± 7.7 nM |
| B7 | binds |  |
